In the supplement of paper PMC7125110:
± gives the standard error. For some assays here: Variants at the floor of the assay were thinned out.

B1: glmS ribozyme (parent)
chain: AUAAAAGCGCCAGAACUACAGAAAUGUAGUUGACGAGGAGGAGGUUUAUCGAAUUUUCGGCGGAUGCCUCCAAA

Variants of: B1
Assay: kcat; higher = faster cleavage; RNA array
Conditions: with glucosamine-6-phosphate
Outline: (§1)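 Glucosamine-6-phosphate, from 40 μM to 10 mM in HEPES/KCl/Mg(OAc)2 buffer, was flowed over sequenced MiSeq chips carrying barcoded ribozyme variants transcribed in situ by E. coli RNA polymerase. A hybridised Cy3 probe tracked the variants at 37 °C as tiles were imaged over ~14 h. kobs, kcat and KM were obtained by fitting normalised per-tile medians to exponential decays and then applying weighted Michaelis–Menten fits across concentrations.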

Point of comparison: AUAAAAGCGCCAGAACUACAGAAAUGUAGUUGACGAGGAGGAGGUUUAAGGAAUUUUCGGCGGAUGCCUCUAAA [U49A C50G C71U], kcat 1.88e-05 ± 4.4e-06 s⁻¹. Against it:
- AUAAAAGCGCCAGAACUACAGAAAUGUAGUUGACGAGGAGGAGGUUUAACGAAUUUUCGGUGGAUGCCUCCAAA [U49A C61U] — lower, < 1e-05 s⁻¹
- AUAAAAGCGCCAGAACUACAGAAAUGUAGUUGACGAGGAGGAGGUUUAACGAAUUUUCUGCGGAUGCCUCCAAA [U49A G59U] — within error, 1.28e-05 ± 4.5e-06 s⁻¹
- AUAAAAGCGCCAGAACUACAGAAAUGUAGUUGACGAGGAGGAGGUUUACCGAAUUUUCGGCGGAUGCCUCAAAA [U49C C71A] — lower, < 1e-05 s⁻¹
- AUAAAAGCGCCAGAACUACAGAAAUGUAGUUGACGAGGAGGAGGUUUAGCGAAUUUUCGGCGGAUGCCUCAAAA [U49G C71A] — 8.2-fold higher, 0.000155 ± 8.2e-06 s⁻¹
- AUAAAAGCGCCAGAACUACAGAAAUGUAGUUGACGAGGAGGAGGUUUAACGAAUUUUCGGCGGAUGACUCCAAA [U49A C67A] — within error, 1.28e-05 ± 1.6e-06 s⁻¹
- AUAAAAGCGCCAGAACUACAGAAAUGUAGUUGACGAGGAGGAGGUUUAACGAAUAUUCGGCGGAUGCCUCCAAA [U49A U55A] — 1.9-fold higher, 3.61e-05 ± 1.5e-06 s⁻¹
- AUAAAAGCGCCAGAACUACAGAAAUGUAGUUGACGAGGAGGAGGUUUAACGAAUGUUCGGCGGAUGCCUCCAAA [U49A U55G] — within error, 1.38e-05 ± 6.5e-06 s⁻¹
- AUAAAAGCGCCAGAACUACAGAAAUGUAGUUGACGAGGAGGAGGUUUAGCGAAUUUUCGGCGGAUGCCUACAAA [U49G C70A] — within error, 1.52e-05 ± 2.5e-06 s⁻¹
- AUAAAAGCGCCAGAACUACAGAAAUGUAGUUGACGAGGAGGAGGUUUAGCGUAUUUUCGGCGGAUGCCUCCAAA [U49G A52U] — within error, 1.85e-05 ± 1.5e-06 s⁻¹
- AUAAAAGCGCCAGAACUACAGAAAUGUAGUUGACGAGGAGGAGGUUUUUCGAAUUUUCGGCGGAUGCCGCCAAA [A48U U69G] — 2.8-fold higher, 5.22e-05 ± 2.1e-05 s⁻¹
- AUAAAAGCGCCAGAACUACAGAAAUGUAGUUGACGAGGAGGAGGUUUAGCGAAUUUUCGGCGGAUGCGUCCAAA [U49G C68G] — 1.8-fold higher, 3.3e-05 ± 5.3e-06 s⁻¹
- AUAAAAGCGCCAGAACUACAGAAAUGUAGUUGACGAGGAGGAGGUUUAACGAAUUUUCGGCGGAUGCCUCUAAA [U49A C71U] — within error, 1.56e-05 ± 3.2e-06 s⁻¹
- AUAAAAGCGCCAGAACUACAGAAAUGUAGUUGACGAGGAGGAGGUUUUUCGAAUUUUCGGCGGAGGCCUUCAAA [A48U U65G C70U] — 9-fold higher, 0.00017 ± 4.1e-05 s⁻¹
- AUAAAAGCGCCAGAACUACAGAAAUGUAGUUGACGAGGAGGAGGUUUAGCGAUUUUUCGGCGGAUGCCUCCAAA [U49G A53U] — 55-fold higher, 0.00103 ± 0.00011 s⁻¹
- AUAAAAGCGCCAGAACUACAGAAAUGUAGUUGACGAGGAGGAGGUUUAGCGACUUUUCGGCGGAUGCCUCCAAA [U49G A53C] — 29-fold higher, 0.000546 ± 0.00023 s⁻¹
- AUAAAAGCGCCAGAACUACAGAAAUGUAGUUGACGAGGAGGAGGUUUAACGAAUUUUCGGCGGAUGCCACCAAA [U49A U69A] — 2.7-fold higher, 5.14e-05 ± 1.9e-05 s⁻¹

Variants of: B1
Assay: self-cleavage kobs at 40 uM GlcN6P; higher = faster cleavage; RNA array
Conditions: with glucosamine-6-phosphate
Outline: as §1

For AUAAAAGCGCCAGAACUACAGAAAUGUAGUUGACGAGGAGGAGGUUUACCGAAUUUUCGGCGGAUGCCUCAAAA [U49C C71A], the “self-cleavage kobs at 40 uM GlcN6P” value was < 1e-05 s⁻¹.

Variants of: B1
Assay: self-cleavage kobs at 640 uM GlcN6P; higher = faster cleavage; RNA array
Conditions: with glucosamine-6-phosphate
Outline: as §1

Point of comparison: AUAAAAGCGCCAGAACUACAGAAAUGUAGUUGACGAGGAGGAGGUUUAGCGACUUUUCGGCGGAUGCCUCCAAA [U49G A53C], “self-cleavage kobs at 640 uM GlcN6P” value 7.82e-05 ± 2.4e-05 s⁻¹. Against it:
- AUAAAAGCGCCAGAACUACAGAAAUGUAGUUGACGAGGAGGAGGUUUACCGAAUUUUCGGCGGAUGCCUCAAAA [U49C C71A] — lower, < 1e-05 s⁻¹
- AUAAAAGCGCCAGAACUACAGAAAUGUAGUUGACGAGGAGGAGGUUUAGCGAAUUUUCGGCGGAUGCCUCAAAA [U49G C71A] — within error, 5.22e-05 ± 1.8e-05 s⁻¹
- AUAAAAGCGCCAGAACUACAGAAAUGUAGUUGACGAGGAGGAGGUUUAACGAAUUUUCGGCGGAUGCCUCUAAA [U49A C71U] — lower, < 1e-05 s⁻¹
- AUAAAAGCGCCAGAACUACAGAAAUGUAGUUGACGAGGAGGAGGUUUAGCGAUUUUUCGGCGGAUGCCUCCAAA [U49G A53U] — 1.8-fold higher, 0.00014 ± 1.9e-05 s⁻¹

Variants of: B1
Assay: KM; higher = weaker cofactor use; RNA array
Conditions: with glucosamine-6-phosphate
Outline: as §1

Point of comparison: AUAAAAGCGCCAGAACUACAGAAAUGUAGUUGACGAGGAGGAGGUUUAGCGAAUUUUCGGCGGAUGCCUCAAAA [U49G C71A], KM 1.46 ± 0.26 mM. Against it:
- AUAAAAGCGCCAGAACUACAGAAAUGUAGUUGACGAGGAGGAGGUUUAACGAAUAUUCGGCGGAUGCCUCCAAA [U49A U55A] — 4.1-fold higher, 5.97 ± 0.61 mM
- AUAAAAGCGCCAGAACUACAGAAAUGUAGUUGACGAGGAGGAGGUUUAGCGUAUUUUCGGCGGAUGCCUCCAAA [U49G A52U] — within error, 2.32 ± 0.91 mM
- AUAAAAGCGCCAGAACUACAGAAAUGUAGUUGACGAGGAGGAGGUUUAGCGAUUUUUCGGCGGAUGCCUCCAAA [U49G A53U] — 3.1-fold higher, 4.49 ± 0.76 mM

Variants of: B1
Assay: self-cleavage kobs at 2500 uM GlcN6P; higher = faster cleavage; RNA array
Conditions: with glucosamine-6-phosphate
Outline: as §1

Point of comparison: AUAAAAGCGCCAGAACUACAGAAAUGUAGUUGACGAGGAGGAGGUUUAGCGAUUUUUCGGCGGAUGCCUCCAAA [U49G A53U], “self-cleavage kobs at 2500 uM GlcN6P” value 0.000364 ± 5.6e-05 s⁻¹. Against it:
- AUAAAAGCGCCAGAACUACAGAAAUGUAGUUGACGAGGAGGAGGUUUAGCGAAUUUUCGGCGGAUGCCUCAAAA [U49G C71A] — 4.1-fold lower, 8.83e-05 ± 2.5e-05 s⁻¹
- AUAAAAGCGCCAGAACUACAGAAAUGUAGUUGACGAGGAGGAGGUUUUUCGAAUUUUCGGCGGAUGCCGCCAAA [A48U U69G] — 4.9-fold lower, 7.45e-05 ± 1.7e-05 s⁻¹
- AUAAAAGCGCCAGAACUACAGAAAUGUAGUUGACGAGGAGGAGGUUUAGCGAAUUUUCGGCGGAUGCGUCCAAA [U49G C68G] — 10-fold lower, 3.47e-05 ± 1.3e-05 s⁻¹
- AUAAAAGCGCCAGAACUACAGAAAUGUAGUUGACGAGGAGGAGGUUUUUCGAAUUUUCGGCGGAGGCCUUCAAA [A48U U65G C70U] — 3-fold lower, 0.000122 ± 2.8e-05 s⁻¹
- AUAAAAGCGCCAGAACUACAGAAAUGUAGUUGACGAGGAGGAGGUUUAGCGACUUUUCGGCGGAUGCCUCCAAA [U49G A53C] — within error, 0.000369 ± 6.4e-05 s⁻¹

Variants of: B1
Assay: self-cleavage kobs at 10000 uM GlcN6P; higher = faster cleavage; RNA array
Conditions: with glucosamine-6-phosphate
Outline: as §1

Point of comparison: AUAAAAGCGCCAGAACUACAGAAAUGUAGUUGACGAGGAGGAGGUUUAACGAAUAUUCGGCGGAUGCCUCCAAA [U49A U55A], “self-cleavage kobs at 10000 uM GlcN6P” value 2.26e-05 ± 9.3e-06 s⁻¹. Against it:
- AUAAAAGCGCCAGAACUACAGAAAUGUAGUUGACGAGGAGGAGGUUUAGCGAAUUUUCGGCGGAUGCCUCAAAA [U49G C71A] — 6.1-fold higher, 0.000137 ± 1.9e-05 s⁻¹
- AUAAAAGCGCCAGAACUACAGAAAUGUAGUUGACGAGGAGGAGGUUUUUCGAAUUUUCGGCGGAGGCCUUCAAA [A48U U65G C70U] — 5.8-fold higher, 0.000132 ± 3e-05 s⁻¹
- AUAAAAGCGCCAGAACUACAGAAAUGUAGUUGACGAGGAGGAGGUUUAGCGAUUUUUCGGCGGAUGCCUCCAAA [U49G A53U] — 31-fold higher, 0.000709 ± 8.3e-05 s⁻¹
- AUAAAAGCGCCAGAACUACAGAAAUGUAGUUGACGAGGAGGAGGUUUAGCGACUUUUCGGCGGAUGCCUCCAAA [U49G A53C] — 16-fold higher, 0.000368 ± 8.5e-05 s⁻¹

Variants of: B1
Assay: self-cleavage kobs at 160 uM GlcN6P; higher = faster cleavage; RNA array
Conditions: with glucosamine-6-phosphate
Outline: as §1

Point of comparison: AUAAAAGCGCCAGAACUACAGAAAUGUAGUUGACGAGGAGGAGGUUUAGCGAUUUUUCGGCGGAUGCCUCCAAA [U49G A53U], “self-cleavage kobs at 160 uM GlcN6P” value 2.84e-05 ± 8.8e-06 s⁻¹. Against it:
- AUAAAAGCGCCAGAACUACAGAAAUGUAGUUGACGAGGAGGAGGUUUAGCGUAUUUUCGGCGGAUGCCUCCAAA [U49G A52U] — lower, < 1e-05 s⁻¹
- AUAAAAGCGCCAGAACUACAGAAAUGUAGUUGACGAGGAGGAGGUUUUUCGAAUUUUCGGCGGAGGCCUUCAAA [A48U U65G C70U] — lower, < 1e-05 s⁻¹
